# Test results taken from paper PMC4120242.
# Target: endogenous FcγRI on human monocytes (human (endogenous in blood monocytes)) (UniProt P12314)
# UniProt P12314, sequence (P12314 16-374): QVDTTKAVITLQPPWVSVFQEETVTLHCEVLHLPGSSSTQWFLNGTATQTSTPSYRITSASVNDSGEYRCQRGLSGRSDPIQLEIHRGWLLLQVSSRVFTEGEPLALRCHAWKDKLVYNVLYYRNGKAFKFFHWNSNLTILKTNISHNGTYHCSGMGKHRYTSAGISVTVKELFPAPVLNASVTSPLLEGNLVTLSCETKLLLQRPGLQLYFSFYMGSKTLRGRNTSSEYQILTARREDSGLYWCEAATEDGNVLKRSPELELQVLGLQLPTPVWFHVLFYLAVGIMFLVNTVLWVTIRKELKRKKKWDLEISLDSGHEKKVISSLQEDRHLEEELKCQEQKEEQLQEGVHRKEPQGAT
substance,measurement,value
"Serum Amyloid P component (SAP), wildtype (from UniProt P02743 20-223) (natural protein)",IC50 of inhibition of fibrocyte differentiation of human PBMCs,2.9 nM
